These results are taken from WO2021032966A1 (dated 2021).

In experiment [1] the target is T1, human Ab42 species in protein extracts of GMC101 C. elegans worms (human).
T1 construct: Target present in crude worm protein extracts coated on ELISA wells; also called NIAD-4 negative, toxic Ab42 species; Ab42 oligomers formed in vivo
Kind of experiment: indirect ELISA on C. elegans protein extracts, N2 worms as reference.

For experiment [2], the target named is T2, Ab42 species in hippocampus protein extracts of J20 mice (PDGF-APPSw,Ind) (human).
T2 construct: Target present in crude hippocampus extracts coated on ELISA wells; 6E10 detects total Ab in the same extracts; also called Ab42 oligomers formed in vivo in a mouse model of AD
Kind of experiment: indirect ELISA on hippocampus protein extracts of J20 mice, normalised to wild-type mice. For orientation: An ELISA detects its analyte on a solid surface through an enzyme-linked reagent.

Experiment [3] concerns the target T3, Zn2+-stabilised Ab40 oligomers (UniProt P05067 672-711).
T3 construct: domain: Ab1-40; Oligomers made by incubating Ab40 with ZnCl2 for 20 hours at 20 C
Kind of experiment: ITC, fit of double subtracted integrated peaks. A general note: Isothermal titration calorimetry measures the heat released or taken up as one component is titrated into another.

The target in experiment [4] is T3, Zn2+-stabilised Ab40 oligomers. Kind of experiment: ITC, DesAb-O injected into Ab40 oligomers, 25 C.

T3 sequence (P05067 671-711 limits assumed): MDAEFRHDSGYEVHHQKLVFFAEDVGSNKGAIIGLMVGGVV
T2 sequence (peptide, as listed by the source): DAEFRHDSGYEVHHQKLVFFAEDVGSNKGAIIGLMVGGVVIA
T1 sequence (peptide, as listed by the source): as above

B1: DesAb-O (VHH)
VHH: EVQLVESGGGLVQPGGSLRLSCAASGFNIKDTYIGWVRRAPGKGEEWVASIYPTNGYTRYADSVKGRFTISADTSKNTAYLQMNSLRAEDTAVYYCAAGSESAFGRAEEEAAAWGQGTLVTVSS
notes: Rationally designed single-domain antibody (VH domain), expressed in E. coli, purified by Ni2+ chromatography and detected with an anti-6X His tag antibody; also called DesAb-0; Des-Ab-0
Turning to B1, the binding result in experiment [1] and in experiment [2] was “binds” in each case. Further, the “DH (ITC fit)” value in experiment [3] is -12.7 kcal/mol. Also, the equilibrium dissociation constant (Kd) (in general, the constant that tells how readily two partners part at equilibrium) in experiment [3] is 440 nM; in experiment [4] it was roughly 500 nM.
